Assays:
Assay in all cases: ELISA, antigen immobilized at 1 µg/mL, detection with anti-human kappa-HRP
[1] = target: T1, ActRIIA-His (LifeSpan Biosciences, LS-G39063) (Homo sapiens (Human), UniProt P27037 20-135)
T1 construct: Bought reagent
Protocol: (§1) The binding activities of the humanized 75E9STF8-1 obtained in Example 4 to ActRIIA, ActRIIB, and Fn14 were evaluated. ActRIIA-His (LifeSpan Biosciences, LS-G39063), ActRIIB-His (LifeSpan Biosciences, LS-G38834), and the human Fc fusion proteins including the extracellular domain of human Fn14 prepared in Example 3 were each diluted to 1 μg/mL with phosphate-buffered physiological saline (PBS), each added to a Maxisorp 384-well transparent plate (Nunc, 464718) at 15 μL/well, and incubated at 4° C. overnight for immobilization. On the next day, the solid phase liquid was removed and washing was performed with a 0.05% Tween-20-containing Tris-buffered physiological saline (TBS-T). Thereafter, PBS including 20% Blocking One (Nacalai tesque, Inc., 03953-95) was added thereto at 50 μL/well, and the mixture was left to stand at room temperature for 1 hour and then washed with TBS-T. Dilution series of humanized 75E9STF8-1 were prepared by dilution in 12 steps at a 4-fold common ratio from the maximum concentration of 30 μg/mL, and added at 20 μL/well. TBS-T including 5% Blocking One was used as a diluent. After incubation for 1 hour at room temperature, washing was performed with TBS-T. As a detection antibody, Goat Anti-Human Kappa, Mouse ads-HRP (SouthernBiotech, 2061-05) which had been 4,000-fold diluted with a diluent (TBS-T including 5% Blocking One) was added at 20 μL/well. After incubating at room temperature for 1.5 hours, the cells were washed with TBS-T, TMB+Substrate-Chromogen (DAKO, S159985) was added thereto, the mixture was left to stand, 1 M sulfuric acid was added thereto to stop the reaction, and the absorbance at 450 nm was measured with Infinite (registered trademark) 200 Pro (TECAN).

[2] = target: T2, ActRIIB-His (LifeSpan Biosciences, LS-G38834) (Homo sapiens (Human), UniProt Q13705 19-137)
T2 construct: Bought reagent
T2 sequence: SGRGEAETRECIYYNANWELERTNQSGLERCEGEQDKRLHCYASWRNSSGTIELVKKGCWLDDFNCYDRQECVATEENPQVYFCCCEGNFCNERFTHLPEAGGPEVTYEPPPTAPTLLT
Protocol: as §1

[3] = target: T3, human Fc fusion protein including the extracellular domain of human Fn14 (human, UniProt Q9NP84 28-80)
T3 construct: extracellular domain; not shown: human Fc
T3 sequence (looked up): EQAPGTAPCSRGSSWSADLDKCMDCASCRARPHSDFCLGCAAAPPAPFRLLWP
Protocol: as §1

T1 sequence (P27037 20-135 limits assumed, form in doubt, one chain of several): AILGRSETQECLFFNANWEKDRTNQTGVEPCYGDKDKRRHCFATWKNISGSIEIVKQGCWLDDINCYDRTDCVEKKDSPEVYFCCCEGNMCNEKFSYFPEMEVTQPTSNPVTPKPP

B1: humanized 75E9STF8-1 (bispecific antibody, human IgG1, kappa, L234A L235A)
heavy: EVQLVESGGGLVQPGGSLRLSCAASRSIFAYGTMAWYRQAPGKGRELVATISGGGTTSYSDSVKGRFTISRDNGKSTVYLQMNSLRAEDTAVYYCNKRSIGTNDFWGQGTLVTVSSGGGGSGGGGSGGGGSGGGGSGGGGSEVQLVESGGGLVQPGGSLRLSCAASGFTLTTNALIWGRQAPGAAPGKGPEWVAGIRADGRPYYGDSMKGRVTISRDIAKNTAYLQMNSLRPEDTAVYFCATRLDDSGTYDRGRGTTVTVSSGGGGSGGGGSEVQLVESGGGLVKPGGSLRLSCAASGITFSTYGMNWVRQAPGKGLEWVSSISSRSIHISYADSVKGRFTISRDNAKNSLYLQMSSLRADDTAVYYCARDRGAAAFDYWGRGTLVAVSSASTKGPSVFPLAPSSKSTSGGTAALGCLVKDYFPEPVTVSWNSGALTSGVHTFPAVLQSSGLYSLSSVVTVPSSSLGTQTYICNVNHKPSNTKVDKKVEPKSCDKTHTCPPCPAPEAAGGPSVFLFPPKPKDTLYITREPEVTCVVVDVSHEDPEVKFNWYVDGVEVHNAKTKPREEQYNSTYRVVSVLTVLHQDWLNGKEYKCKVSNKALPAPIEKTISKAKGQPREPQVYTLPPSRDELTKNQVSLTCLVKGFYPSDIAVEWESNGQPENNYKTTPPVLDSDGSFFLYSKLTVDKSRWQQGNVFSCSVMHEALHNHYTQKSLSLSPGK
light: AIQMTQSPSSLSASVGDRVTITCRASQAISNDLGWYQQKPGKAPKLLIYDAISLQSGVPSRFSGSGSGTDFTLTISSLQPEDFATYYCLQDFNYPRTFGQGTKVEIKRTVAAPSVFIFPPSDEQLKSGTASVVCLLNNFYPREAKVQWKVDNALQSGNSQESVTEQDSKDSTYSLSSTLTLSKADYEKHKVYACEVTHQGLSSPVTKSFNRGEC
notes: Expressed in CHO-K1SV cells
EC50 [1]: 5.03 ng/mL | EC50 [2]: 9.24 ng/mL | EC50 [3]: 23.3 ng/mL
